In US20190160169A1 (JULIUS MAXIMILIANS UNIVERSIT T W RZBURG, published 2019):

How the values were obtained:
[1] = biological target: T1, recombinant mature human GDF-15 protein (derived from Baculovirus-transfected HighFive insect cells) (human, UniProt Q99988 197-308); test: SPR (Biorad ProteOn XPR36), GDF-15 immobilised on GLC chip, antibody as analyte, 25 °C, 1:1 Langmuir
T1 construct: also called recombinant human GDF-15; GDF-15 derived from insect cell expression
T1 sequence: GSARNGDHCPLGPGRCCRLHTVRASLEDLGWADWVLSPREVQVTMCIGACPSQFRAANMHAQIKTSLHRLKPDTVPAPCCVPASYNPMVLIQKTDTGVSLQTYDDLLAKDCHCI
Description: (§1) For preparing the biosensors recombinant mature human GDF-15 protein was immobilized on flow cells 1 and 2. On one flow cell recombinant GDF-15 derived from Baculvirus-transfected insect cells (HighFive insect cells) and on the other recombinant protein derived from expression in E. coli was used. The GLC sensor chip was activated using Sulfo-NHS (N-Hydroxysulfosuccinimide) and EDC (1-Ethyl-3-[3-dimethylaminopropyl]carbodiimide hydrochloride) (Biorad ProteOn Amine Coupling Kit) according to the manufacturer's recommendation, the sensor surface was subsequently loaded with the proteins up to a density of about 600 RU (1 Ru=1 pg mm⁻²). The non-reacted coupling groups were then quenched by perfusion with 1M ethanolamine pH 8.5 and the biosensor was equilibrated by perfusing the chip with running buffer ([…], 150 mM NaCl, 3.4 mM EDTA, 0.005% Tween-20, pH 7.4, referred to as HBS150). […] The resulting sensogram was analyzed using the software ProteOn Manager version 3.0. […] For the association rate constant a value of 5.4±0.06×10⁵ M⁻¹ s⁻¹ (kₒₙ) and for the dissociation rate constant a value of 4.3±0.03×10⁻⁴ s⁻¹ (koff) could be determined (values are for the interaction of anti-human GDF-15 mAb-B1-23 with GDF-15 derived from insect cell expression).

[2] = biological target: recombinant mature human GDF-15 protein derived from expression in E. coli (human) (UniProt Q99988); test: SPR (Biorad ProteOn XPR36), GDF-15 immobilised on GLC chip, antibody as analyte
[3] = biological target: T1, recombinant mature human GDF-15 protein …; test: SPR (Biorad ProteOn XPR36), KD=koff/kon
Description: as §1

B1: monoclonal anti-human GDF-15 mAb-B1-23 (antibody, V domains shown)
VH: QVKLQQSGPGILQSSQTLSLTCSFSGFSLSTSGMGVSWIRQPSGKGLEWLAHIYWDDDKRYNPTLKSRLTISKDPSRNQVFLKITSVDTADTATYYCARSSYGAMDYWGQGTSVTVSS
VL: DIVLTQSPKFMSTSVGDRVSVTCKASQNVGTNVAWFLQKPGQSPKALIYSASYRYSGVPDRFTGSGSGTDFTLTISNVQSEDLAEYFCQQYNNFPYTFGGGTKLEIK
notes: also called antibody B1-23; monoclonal mouse antibody GDF-15
koff [1]: 0.00043 s⁻¹
kon [1]: 540000 M⁻¹ s⁻¹
deviation of rate constants against GDF-15 derived from insect cells [2]: 45%
difference of affinity values against GDF-15 derived from insect cells [2]: < 2 fold
Kd [3]: ~0.79 nM
